Experiments:
[His2]hGLP-2(1-33) = biological target: T1, [His2]hGLP-2(1-33)
T1 chain: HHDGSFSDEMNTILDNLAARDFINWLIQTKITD

[Ile2]hGLP-2(1-33) = biological target: T2, [Ile2]hGLP-2(1-33)
T2 chain: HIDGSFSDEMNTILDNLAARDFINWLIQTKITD

[Lys2]hGLP-2(1-33) = biological target: T3, [Lys2]hGLP-2(1-33)
T3 chain: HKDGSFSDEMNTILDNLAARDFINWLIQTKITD

[Met2]hGLP-2(1-33) = biological target: T4, [Met2]hGLP-2(1-33)
T4 chain: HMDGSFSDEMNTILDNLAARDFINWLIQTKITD

[Nval2]hGLP-2(1-33) = biological target: T5, [Nval2]hGLP-2(1-33)
T5 chain: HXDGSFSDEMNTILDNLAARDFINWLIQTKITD

[Pen2]hGLP-2(1-33) = biological target: T6, [Pen2]hGLP-2(1-33)
T6 chain: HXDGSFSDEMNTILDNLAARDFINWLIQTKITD

[PhGly2]hGLP-2(1-33) = biological target: T7, [PhGly2]hGLP-2(1-33)
T7 chain: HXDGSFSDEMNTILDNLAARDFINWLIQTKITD

[Phe25]hGLP-2(1-33) = biological target: T8, [Phe25]hGLP-2(1-33)
T8 chain: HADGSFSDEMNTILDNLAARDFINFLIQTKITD

[Phe2]hGLP-2(1-33) = biological target: T9, [Phe2]hGLP-2(1-33)
T9 chain: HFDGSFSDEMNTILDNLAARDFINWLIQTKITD

[Pro1]hGLP-2(1-33) = biological target: T10, [Pro1]hGLP-2(1-33)
T10 chain: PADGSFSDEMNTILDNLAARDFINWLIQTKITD

[Pro2]hGLP-2(1-33) = biological target: T11, [Pro2]hGLP-2(1-33)
T11 chain: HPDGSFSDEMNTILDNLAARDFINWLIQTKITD

[Pro3]hGLP-2(1-33) = biological target: T12, [Pro3]hGLP-2(1-33)
T12 chain: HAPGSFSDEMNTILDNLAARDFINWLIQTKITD

[Ser2,Gln3]hGLP-2(1-33) = biological target: T13, [Ser2,Gln3]hGLP-2(1-33)
T13 chain: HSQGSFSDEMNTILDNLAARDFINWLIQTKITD

[Ser2]hGLP-2(1-33) = biological target: T14, [Ser2]hGLP-2(1-33)
T14 chain: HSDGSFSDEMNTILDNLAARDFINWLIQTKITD

[Thr2]hGLP-2(1-33) = biological target: T15, [Thr2]hGLP-2(1-33)
T15 chain: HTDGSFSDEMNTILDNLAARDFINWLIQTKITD

[Tyr1, Gly2]hGLP-2(1-33) = biological target: T16, [Tyr1, Gly2]hGLP-2(1-33)
T16 chain: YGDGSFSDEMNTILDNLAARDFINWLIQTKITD

[Tyr1]ratGLP-2(1-33) = biological target: T17, [Tyr1]ratGLP-2(1-33)
T17 chain: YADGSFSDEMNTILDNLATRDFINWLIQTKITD

[Tyr25]hGLP-2(1-33) = biological target: T18, [Tyr25]hGLP-2(1-33)
T18 chain: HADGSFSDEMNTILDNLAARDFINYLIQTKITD

[Tyr2]hGLP-2(1-33) = biological target: T19, [Tyr2]hGLP-2(1-33)
T19 chain: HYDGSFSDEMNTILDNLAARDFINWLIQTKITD

[Val2]GLP-2(1-33) = biological target: T20, [Val2]GLP-2(1-33)
T20 chain: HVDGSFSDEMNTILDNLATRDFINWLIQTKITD

[Val2]hGLP-2(1-33) = biological target: T21, [Val2]hGLP-2(1-33)
T21 chain: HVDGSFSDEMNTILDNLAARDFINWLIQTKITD

[aAbu2]hGLP-2(1-33) = biological target: T22, [aAbu2]hGLP-2(1-33)
T22 chain: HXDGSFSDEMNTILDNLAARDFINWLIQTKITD

[bAla2]hGLP-2(1-33) = biological target: T23, [bAla2]hGLP-2(1-33)
T23 chain: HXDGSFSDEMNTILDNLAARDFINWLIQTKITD

[desNH2Tyr1]hGLP-2(1-33) = biological target: T24, [desNH2Tyr1]hGLP-2(1-33)
T24 chain: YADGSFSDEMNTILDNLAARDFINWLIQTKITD

[tBuGly2]hGLP-2 = biological target: T25, [tBuGly2]hGLP-2
T25 chain: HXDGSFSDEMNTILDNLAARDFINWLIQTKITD

hGLP-2(1-33) = biological target: T26, hGLP-2(1-33)
T26 chain: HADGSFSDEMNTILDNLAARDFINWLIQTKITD

ratGLP-2(1-33) = biological target: T27, ratGLP-2(1-33)
T27 chain: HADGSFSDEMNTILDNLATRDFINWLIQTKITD

B1: human placental DPP-IV (Calbiochem, La Jolla, Calif., cat. #317624) (protein)
chain: MKTPWKVLLGLLGAAALVTIITVPVVLLNKGTDDATADSRKTYTLTDYLKNTYRLKLYSLRWISDHEYLYKQENNILVFNAEYGNSSVFLENSTFDEFGHSINDYSISPDGQFILLEYNYVKQWRHSYTASYDIYDLNKRQLITEERIPNNTQWVTWSPVGHKLAYVWNNDIYVKIEPNLPSYRITWTGKEDIIYNGITDWVYEEEVFSAYSALWWSPNGTFLAYAQFNDTEVPLIEYSFYSDESLQYPKTVRVPYPKAGAVNPTVKFFVVNTDSLSSVTNATSIQITAPASMLIGDHYLCDVTWATQERISLQWLRRIQNYSVMDICDYDESSGRWNCLVARQHIEMSTTGWVGRFRPSEPHFTLDGNSFYKIISNEEGYRHICYFQIDKKDCTFITKGTWEVIGIEALTSDYLYYISNEYKGMPGGRNLYKIQLSDYTKVTCLSCELNPERCQYYSVSFSKEAKYYQLRCSGPGLPLYTLHSSVNDKGLRVLEDNSALDKMLQNVQMPSKKLDFIILNETKFWYQMILPPHFDKSKKYPLLLDVYAGPCSQKADTVFRLNWATYLASTENIIVASFDGRGSGYQGDKIMHAINRRLGTFEVEDQIEAARQFSKMGFVDNKRIAIWGWSYGGYVTSMVLGSGSGVFKCGIAVAPVSRWEYYDSVYTERYMGLPTPEDNLDHYRNSTVMSRAENFKQVEYLLIHGTADDNVHFQQSAQISKALVDVGVDFQAMWYTDEDHGIASSTAHQHIYTHMSHFIKQCFSLP
B1 was tested, and the “% Cleaved by DPP-IV” value ([His2]hGLP-2(1-33)) was 0%, the “% Cleaved by DPP-IV” value ([Ile2]hGLP-2(1-33)) was 0% and the “% Cleaved by DPP-IV” value ([Lys2]hGLP-2(1-33)) was 0%. For the same protein, the “% Cleaved by DPP-IV” value ([Met2]hGLP-2(1-33)) was 0%, the “% Cleaved by DPP-IV” value ([Nval2]hGLP-2(1-33)) was 0% and the “% Cleaved by DPP-IV” value ([Pen2]hGLP-2(1-33)) was 20%. The “% Cleaved by DPP-IV” value ([PhGly2]hGLP-2(1-33)) was 0%, the “% Cleaved by DPP-IV” value ([Phe25]hGLP-2(1-33)) was 54% and the “% Cleaved by DPP-IV” value ([Phe2]hGLP-2(1-33)) was 0%. For the same protein, the “% Cleaved by DPP-IV” value ([Pro1]hGLP-2(1-33)) was 0%, the “% Cleaved by DPP-IV” value ([Pro2]hGLP-2(1-33)) was 16% and the “% Cleaved by DPP-IV” value ([Pro3]hGLP-2(1-33)) was 0%. The “% Cleaved by DPP-IV” value ([Ser2,Gln3]hGLP-2(1-33)) was 0%, the “% Cleaved by DPP-IV” value ([Ser2]hGLP-2(1-33)) was 0% and the “% Cleaved by DPP-IV” value ([Thr2]hGLP-2(1-33)) was 0%. For the same protein, the “% Cleaved by DPP-IV” value ([Tyr1, Gly2]hGLP-2(1-33)) was 0%, the “% Cleaved by DPP-IV” value ([Tyr1]ratGLP-2(1-33)) was 100% and the “% Cleaved by DPP-IV” value ([Tyr25]hGLP-2(1-33)) was 48%. For the same protein, the “% Cleaved by DPP-IV” value ([Tyr2]hGLP-2(1-33)) was 0%, the “% Cleaved by DPP-IV” value ([Val2]GLP-2(1-33)) was 0% and the “% Cleaved by DPP-IV” value ([Val2]hGLP-2(1-33)) was 13%. For the same protein, the “% Cleaved by DPP-IV” value ([aAbu2]hGLP-2(1-33)) was 49%, the “% Cleaved by DPP-IV” value ([bAla2]hGLP-2(1-33)) was 0% and the “% Cleaved by DPP-IV” value ([desNH2Tyr1]hGLP-2(1-33)) was 15%. The “% Cleaved by DPP-IV” value ([tBuGly2]hGLP-2) was 0%, the “% Cleaved by DPP-IV” value (hGLP-2(1-33)) was 60% and the “% Cleaved by DPP-IV” value (ratGLP-2(1-33)) was 58%. The “extent of cleavage after 24 hour incubation (RP-HPLC)” value (ratGLP-2(1-33)) was 22% of the control peptide, rGLP-2, was cleaved by DPP-IV.

Reference: US8933039
